Test [1] deals with human Trypsin (Sigma) (human) (UniProt P07477). Kind of test: cell-based or functional assay.
The target of test [2] is AS-SPIK (Abnormal Secreted serine protease inhibitor Kazal), purified or partially purified from the medium of S2-3 cells (human) (UniProt P00995). Briefly: cell-based or functional assay.

In the case of “AS-SPIK (Abnormal Secreted serine protease inhibitor Kazal), purified or partially purified from the medium of S2-3 cells (from UniProt P00995 24-79)”, the inhibition of trypsin digestion of 1 uM BML (Boc-Gln-Ala-Arg-AMC) after 60 minutes, 3 nM AS-SPIK and 2 ng/ml trypsin in test [1] stood at 70%.

B1: monoclonal antibody IM-CA22 (antibody, V domains shown)
VH: QIQLQQSGPELVKPGTSVKLSCKASGYTFTDYYINWVKQRPGQGLEWIGWIYPGSGNPIYNENFKDKATLTVDTSSTTAYLQLSSLTSEDSAVYFCAREWGCAMDSWGQGTSVTVSS
VL: DIVMTQSPSSLSVSTGEKVTMSCKSSQSLLNSGNQKNYLAWYQQKPGQSPKLLIYGASTRESGVPDRFTGSGSGTEFTLTISSVQAEDLAVYYCQSDYSHPYTFGGGTKLEIK
As for B1, the restoration of Trypsin activity (inhibition of AS-SPIK activity) at 60 minutes, 1 ug/ml IM-CA22 pre-incubated with 3 nM AS-SPIK in test [2] is greater than 60%.

These data come from patent US20210253734A1.
